Test results: publication PMC5395944, “Structural basis of inhibition of lipid-linked oligosaccharide flippase PglK by a conformational nanobody” (Scientific Reports, 2017)
Where “and” joins values, the source holds several entries; their conditions need not be identical. Identical values can stand only once.

Assays:
[1] = molecular target: PglK wild type (lipid-linked oligosaccharide flippase, ABC transporter) from Campylobacter jejuni (C. jejuni, UniProt Q0P9C4); assay: cross-linking; 0.1% glutaraldehyde for 30 min, then high-mass MALDI mass spectrometry; PglK 18 μM and Nb 18 μM (1:2 PglK-homodimer:Nb), 10 mM HEPES pH 7.5, 100 mM NaCl, 0.016% LMNG; without nucleotides or with 5 mM MgCl2 and 5 mM ADP or ATP; settings: both partners purified
[2] = molecular target: T1, PglK-E510Q (C. jejuni, UniProt Q0P9C4, E510Q); assay: crystal structure; settings: both partners purified
T1 construct: also called PglK mutant E510Q; source: E. coli BL21-Gold (DE3), purified from membranes in detergent (NiNTA, size exclusion chromatography)

B1: Nb87 (inhibitory conformational nanobody against PglK) (VHH)
VHH: QVQLQESGGGLVQPGGSLRLSCAASGFTFSSYAMSWVRQAPGKGLEWVSAITSGGGSTSYSDAVKGRFTISRDNAKNTLYLQMNSLKPEDTAVYYCAKGYVVDFLDLAEYDSWGQGTQVTVSS
notes: source: E. coli WK6, periplasmic extract, purified (NiNTA)
stoichiometry N [1]: 1 Nb87 per PglK homodimer and 2 Nb87 per PglK homodimer | stoichiometry N [2]: 1 Nb87 per PglK homodimer
